# T1: rHuman Erythropoietin R/Fc Chimera, CF (R&D Systems Cat#963-ER) (human, UniProt P19235 25-250)
# T1 construct: Bought recombinant protein; also called EPO R; Epo R; Fc part of the bought chimera not given
# T1 sequence (looked up): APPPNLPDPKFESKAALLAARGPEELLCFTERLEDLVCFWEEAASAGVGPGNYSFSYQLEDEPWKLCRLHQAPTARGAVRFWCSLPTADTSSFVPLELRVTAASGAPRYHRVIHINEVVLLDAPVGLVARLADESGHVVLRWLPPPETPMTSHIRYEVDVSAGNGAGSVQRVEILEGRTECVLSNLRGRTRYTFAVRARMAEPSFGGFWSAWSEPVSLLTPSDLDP
# Experiments:
# [1] = target: T2, Recombinant Human DLL4 (R&D Systems Cat#1506-D4/CF) (human, UniProt Q9NR61 27-524); test: ELISA, DLL4 coated, 100 nM Fab, absorbance at 450 nm minus noise
# T2 construct: Bought recombinant protein; also called delta-like protein 4; rHuman DLL4
# [2] = target: T2, Recombinant Human DLL4 (R&D Systems …); test: ECL Multispot (MSD), DLL4 spotted, 10 nM Fab
# [3] = target: T3, rHuman ErbB2/Fc Chimera, CF (R&D Systems Cat#1129-ER) (human, UniProt P04626 23-652); test: ECL multispot (MSD) binding assay, antigens spotted on plate, 20 nM Fab;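 note: fab incubated 1 h at 20 °C on antigen-spotted wells, bound Fab detected by TAG-labelled antibody, ratio of 4 or more over blank counted as a hit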
# T3 construct: Bought recombinant protein; also called human epidermal growth factor 2 receptor; Fc part of the bought chimera not given
# [4] = target: T4, rHuman EGF R/Fc Chimera, CF (R&D Systems Cat#344-ER) (human, UniProt P00533 25-645); test: as above
# T4 construct: Bought recombinant protein; also called epidermal growth factor receptor; Fc part of the bought chimera not given
# [5] = target: T5, Recombinant Human DLL4 (R&D Systems Cat#1506-D4/CF) (human, UniProt Q9NR61 27-524); test: as above
# T5 construct: Bought recombinant protein; also called delta-like protein 4; rHuman DLL4
# [6] = target: T6, rHuman CD44/Fc Chimera, CF (R&D Systems Cat#3660-CD) (human, UniProt P16070 21-220); test: as above
# T6 construct: Bought recombinant protein; Fc part of the bought chimera not given
# [7] = target: T7, rHuman P-Cadherin/Fc Chimera, CF (R&D Systems Cat#861-PC) (human, UniProt P22223 108-654); test: as above
# T7 construct: Bought recombinant protein; Fc part of the bought chimera not given
# [8] = target: T1, rHuman Erythropoietin R/Fc Chimera, CF …; test: as above
# [9] = target: T8, rHuman Notch-1/Fc Chimera, CF (R&D Systems Cat#3647-TK) (human, UniProt P46531 19-526); test: as above
# T8 construct: Bought recombinant protein; Fc part of the bought chimera not given
# [10] = target: T9, rHuman IGF-1 sR, (IGF-1 sR), CF (R&D Systems Cat#391-GR) (human, UniProt P08069 31-932); test: as above
# T9 construct: Bought recombinant soluble receptor; The column head prints only 'IGF-1'; also called insulin-like growth factor-1 soluble receptor
ELISA (Signal-Noise) [1],ECL Signal/Noise [2],Binder,also measured
0.67,190,"Fab VH1-46_IGHD6-6*01_IGHJ1*01 S102A/S103P/S104F/H111F F29A & L6_IGKJ1*01 (Fab, V domains shown, Tested as Fab (CH1 with His6/Flag tags; kappa CL), expressed in E. coli; also called APFF F29A) VH: QVQLVQSGAEVKKPGASVKVSCKASGYTATSYYMHWVRQAPGQGLEWMGIINPSGGSTSYAQKFQGRVTMTRDTSTSTVYMELSSLRSEDTAVYYCAREEYAPFSAEYFQFWGQGTLVTVSS VL: not shown",–
0.09,136,"Fab VH1-46_IGHD6-6*01_IGHJ1*01 S102A/S103P/S104F/H111F Y33A & L6_IGKJ1*01 (Fab, V domains shown, Tested as Fab (CH1 with His6/Flag tags; kappa CL), expressed in E. coli; also called APFF Y33A) VH: QVQLVQSGAEVKKPGASVKVSCKASGYTFTSYAMHWVRQAPGQGLEWMGIINPSGGSTSYAQKFQGRVTMTRDTSTSTVYMELSSLRSEDTAVYYCAREEYAPFSAEYFQFWGQGTLVTVSS VL: not shown",–
0.47,453,"Fab VH1-46_IGHD6-6*01_IGHJ1*01 S102A/S103P/S104F/H111F S31A & L6_IGKJ1*01 (Fab, V domains shown, Tested as Fab (CH1 with His6/Flag tags; kappa CL), expressed in E. coli; also called APFF S31A) VH: QVQLVQSGAEVKKPGASVKVSCKASGYTFTAYYMHWVRQAPGQGLEWMGIINPSGGSTSYAQKFQGRVTMTRDTSTSTVYMELSSLRSEDTAVYYCAREEYAPFSAEYFQFWGQGTLVTVSS VL: not shown",–
0.64,457,"Fab VH1-46_IGHD6-6*01_IGHJ1*01 S102A/S103P/S104F/H111F T30A & L6_IGKJ1*01 (Fab, V domains shown, Tested as Fab (CH1 with His6/Flag tags; kappa CL), expressed in E. coli; also called APFF T30A) VH: QVQLVQSGAEVKKPGASVKVSCKASGYTFASYYMHWVRQAPGQGLEWMGIINPSGGSTSYAQKFQGRVTMTRDTSTSTVYMELSSLRSEDTAVYYCAREEYAPFSAEYFQFWGQGTLVTVSS VL: not shown",–
0.77,334,"Fab VH1-46_IGHD6-6*01_IGHJ1*01 S102A/S103P/S104F/H111F T28A & L6_IGKJ1*01 (Fab, V domains shown, Tested as Fab (CH1 with His6/Flag tags; kappa CL), expressed in E. coli; also called APFF T28A) VH: QVQLVQSGAEVKKPGASVKVSCKASGYAFTSYYMHWVRQAPGQGLEWMGIINPSGGSTSYAQKFQGRVTMTRDTSTSTVYMELSSLRSEDTAVYYCAREEYAPFSAEYFQFWGQGTLVTVSS VL: not shown",–
–,–,"Fab VH3-23_IGHD2-21*01>3_IGHJ6*01 H100E/S108P/Y113G Y110N & V2-13_IGLJ2*01 (Fab, V domains shown, Tested as Fab made in E. coli: VH joined to CH1 (His and Flag tags), VL joined to lambda CL; also called EPG Y110N) VH: not shown VL: SSELTQDPAVSVALGQTVRITCQGDSLRSYYASWYQQKPGQAPVLVIYGKNNRPSGIPDRFSGSSSGNTASLTITGAQAEDEADYYCNSRDSSGNHLVVFGGGTKLTVL",ECL multispot signal (ratio to blank; column not labelled) [3]: 1.2; ECL multispot signal (ratio to blank; column not labelled) [4]: 0.9; ECL multispot signal (ratio to blank; column not labelled) [5]: 1.2; ECL multispot signal (ratio to blank; column not labelled) [6]: 0.8; ECL multispot signal (ratio to blank; column not labelled) [7]: 1.2; ECL multispot signal (ratio to blank; column not labelled) [8]: 1.6; ECL multispot signal (ratio to blank; column not labelled) [9]: 1.3; ECL multispot signal (ratio to blank; column not labelled) [10]: 0.9

# Source: US20120316071A1 (published 2012)
